Measurements as given in patent US20210373004A1.

How the values were obtained:
[1] = target: Flag-mCherry-ColKhan-Cys-6His (Photorhabdus khanii); experiment: EIA 8 plex n° 1: colicin coated at 100 nM, Im-RLuc8 alone at 100 nM, luciferase signal
[2] = target: Flag-mCherry-ColErw-Cys-6His (Pectobacterium carotovorum); experiment: EIA 8 plex n° 2: colicin coated at 100 nM, Im-RLuc8 alone at 100 nM, luciferase signal
[3] = target: Flag-mCherry-ColKhan-Cys-6His (Photorhabdus khanii); experiment: as above

Measured: RLU

B1: Myc-RLuc8-Im9-6His (protein)
chain: MGGEQKLISEEDLGGSASKVYDPEQRKRMITGPQWWARCKQMNVLDSFINYYDSEKHAENAVIFLHGNATSSYLWRHVVPHIEPVARCIIPDLIGMGKSGKSGNGSYRLLDHYKYLTAWFELLNLPKKIIFVGHDWGAALAFHYAYEHQDRIKAIVHMESVVDVIESWDEWPDIEEDIALIKSEEGEKMVLENNFFVETVLPSKIMRKLEPEEFAAYLEPFKEKGEVRRPTLSWPREIPLVKGGKPDVVQIVRNYNAYLRASDDLPKLFIESDPGFFSNAIVEGAKKFPNTEFVKVKGLHFLQEDAPDEMGKYIKSFVERVLKNEQKLELKHSISDYTEAEFLQLVTTICNADTSSEEELVKLVTHFEEMTEHPSGSDLIYYPKEGDDDSPSGIVNTVKQWRAANGKLEGGGSHHHHHH
> 100000 RLU: [1] | [2] | [3]
